Assay results as given in US20170281788A1.

Molecular target: insulin receptor (IR-B) (UniProt P06213)
Assay: cell-based or functional assay

- Normalized IR-B EC50: 988 pM
Substance: CIU-033 (from UniProt P09681 52-93) (ligand; B1 amine-CH2CH2CH2-S-S-Cys of incretin; X=Aib)
